Test results taken from article PMC4833398.

B1: bNAb CH01 (antibody, V domains shown)
VH: EVQLVESGANVVRPGGSLRLSCKASGFIFENFGFSWVRQAPGKGLQWVAGLNWNGGDTRYADSVKGRFRMSRDNSRNFVYLDMDKVGVDDTAFYYCARGTDYTIDDAGIHYQGSGTFWYFDLWGRGTLVSVSS
VL: EIVLAQSPGTLSLSPGERATLSCRASHNVHPKYFAWYQQKPGQSPRLLIYGGSTRAAGIPGKFSGSGSGTDFTLTISRVDPEDFAVYYCQQYGGSPYTFGQGTKVEIK
B2: bNAb PG9 (antibody, V domains shown)
VH: QRLVESGGGVVQPGSSLRLSCAASGFDFSRQGMHWVRQAPGQGLEWVAFIKYDGSEKYHADSVWGRLSISRDNSKDTLYLQMNSLRVEDTATYFCVREAGGPDYRNGYNYYDFYDGYYNYHYMDVWGKGTTVTVSS
VL: QSALTQPASVSGSPGQSITISCNGTSNDVGGYESVSWYQQHPGKAPKVVIYDVSKRPSGVSNRFSGSKSGNTASLTISGLQAEDEGDYYCKSLTSTRRRVFGTGTKLTVL

Legend:
[1] = target: 1VH8-scaffolded V1V2 from HIV-1 strain CAP256-SU (trimeric scaffold); test: crystal structure
[2] = target: these trimeric scaffolded V1V2s (1VH8- and 4F2K-scaffolded), expressed and purified in GnTI- cells; test: SPR

| Molecule | stoichiometry N [1] | Kd [2] |
| --- | --- | --- |
| 1VH8-scaffolded V1V2 from HIV-1 strain CAP256-SU (trimeric scaffold) | 3 |  |
| B1 |  | 20 to 50 µM |
| B2 |  | 0.024 to 0.5 µM |
